Like-named read-outs stand apart in the source and are kept apart here.
Experiments:
[1] = biological target: T1, receptor tyrosine kinase orphan receptor 1 (ROR1) on Ntera-2 cells (human, UniProt Q01973 30-937); assay: cell-based or functional assay
[2] = biological target: T1, receptor tyrosine kinase orphan …; assay: cell-based or functional assay; remark: listed apart in the source
[3] = biological target: T1, receptor tyrosine kinase orphan …; assay: cell-based or functional assay; remark: listed apart in the source
human ROR1 (hROR1) [4] = biological target: T2, human ROR1 (hROR1) (human, UniProt Q01973 30-937); assay: cell-based or functional assay
human ROR1 (hROR1) [5] = biological target: T2, human ROR1 (hROR1); assay: flow cytometry, HCT116-hROR1 cells
[6] = biological target: T3, human ROR1 Frizzled domain (hROR1-Fz) (human, UniProt Q01973 165-305); assay: SPR Biacore, IgG on anti-Fc, ROR1-Fz analyte
T3 construct: Acro Biosystems, made in HEK293
Method in brief: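 Test antibodies captured on an anti-Fc surface (CM5 chip), then analyte bound for 180 s with 600 s dissociation at 25° C in HBS-EP+ buffer at 50 μL/min. Human ROR1 ECD, Frizzled or Kringle domain used as analyte; regeneration with 10 mM glycine pH 2.0.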

| Binder | cell killing EC50, NTERA-2 cells [1] [nM] | cell killing Span, NTERA-2 cells [1] [%] | cell killing EC50, NTERA-2 cells [2] [nM] | Cell Killing on Ntera2 Cells, EC50, With 1 uM 2188-D04 [3] [nM] | Cell Killing on Ntera2 Cells, EC50, Without 2188-D04 [3] [nM] | Mino Nb-PBD, drug-conjugated 2° antibody Cell Killing EC50 (human ROR1 (hROR1) [4]) [nM] | Bmax (MFI) (human ROR1 (hROR1) [5]) | Kd (human ROR1 (hROR1) [5]) [nM] | Kd [6] [nM] | koff [6] [s⁻¹] | kon [6] [M⁻¹ s⁻¹] |
| --- | --- | --- | --- | --- | --- | --- | --- | --- | --- | --- | --- |
| Conjugate 46 (D04-Y180/F241/F404/K42-LP3) (antibody, human IgG1, kappa, pAMF at K42, linked to LP3; pAMF at Y180, F241 and F404 (EU), each linked to LP3) heavy: MEVQLVESGGGLVQPGGSLRLSCAASGFNISDYDIHWVRQAPGKGLEWVGGIDPADGSTDYADSVKGRFTISADTSKNTAYLQMNSLRAEDTAVYYCARDYGVYDYWGQGTLVTVSSASTKGPSVFPLAPSSKSTSGGTAALGCLVKDYFPEPVTVSWNSGALTSGVHTFPAVLQSSGLSLSSVVTVPSSSLGTQTYICNVNHKPSNTKVDKKVEPKSCDKTHTCPPCPAPELLGGPSVLFPPKPKDTLMISRTPEVTCVVVDVSHEDPEVKFNWYVDGVEVHNAKTKPREEQYNSTYRVVSVLTVLHQDWLNGKEYKCKVSNKALPAPIEKTISKAKGQPREPQVYTLPPSREEMTKNQVSLTCLVKGFYPSDIAVEWESNGQPENNYKTTPPVLDSDGSFLYSKLTVDKSRWQQGNVFSCSVMHEALHNHYTQKSLSLSPGK light: MDIQMTQSPSSLSASVGDRVTITCRASQDVNTAVAWYQQKPGAPKLLIYSASFLYSGVPSRFSGSRSGTDFTLTISSLQPEDFATYYCQQHYTTPPTFGQGTKVEIKRTVAAPSVFIFPPSDEQLKSGTASVVCLLNNFYPREAKVQWKVDNALQSGNSQESVTEQDSKDSTYSLSSTLTLSKADYEKHKVYACEVTHQGLSSPVTKSFNRGEC | 0.042 | 51 | 0.045 | < 10 | 0.038 |  |  |  |  |  |  |
| Conjugate 47 (D04-Y180/F241/F404/K42-LP4) (antibody, human IgG1, kappa, pAMF at K42, linked to LP4; pAMF at Y180, F241 and F404 (EU), each linked to LP4) heavy: MEVQLVESGGGLVQPGGSLRLSCAASGFNISDYDIHWVRQAPGKGLEWVGGIDPADGSTDYADSVKGRFTISADTSKNTAYLQMNSLRAEDTAVYYCARDYGVYDYWGQGTLVTVSSASTKGPSVFPLAPSSKSTSGGTAALGCLVKDYFPEPVTVSWNSGALTSGVHTFPAVLQSSGLSLSSVVTVPSSSLGTQTYICNVNHKPSNTKVDKKVEPKSCDKTHTCPPCPAPELLGGPSVLFPPKPKDTLMISRTPEVTCVVVDVSHEDPEVKFNWYVDGVEVHNAKTKPREEQYNSTYRVVSVLTVLHQDWLNGKEYKCKVSNKALPAPIEKTISKAKGQPREPQVYTLPPSREEMTKNQVSLTCLVKGFYPSDIAVEWESNGQPENNYKTTPPVLDSDGSFLYSKLTVDKSRWQQGNVFSCSVMHEALHNHYTQKSLSLSPGK light: MDIQMTQSPSSLSASVGDRVTITCRASQDVNTAVAWYQQKPGAPKLLIYSASFLYSGVPSRFSGSRSGTDFTLTISSLQPEDFATYYCQQHYTTPPTFGQGTKVEIKRTVAAPSVFIFPPSDEQLKSGTASVVCLLNNFYPREAKVQWKVDNALQSGNSQESVTEQDSKDSTYSLSSTLTLSKADYEKHKVYACEVTHQGLSSPVTKSFNRGEC | 0.005 | 96 | 0.007 | < 10 | 0.008 |  |  |  |  |  |  |
| SRP2194-A05 (antibody, IgG1, V domains shown, His/FLAG-tagged IgG1, cell-free) VH: EVQLVESGGGLVQPGGSLRLSCAASGFNIKEYHIHWVRQAPGKGLEWVGYISPNSGSTYYADSVKGRFTISADTSKNTAYLQMNSLRAEDTAVYYCARDHRRYVRPFDYWGQGTLVTVSS VL: not shown |  |  |  |  |  | 0.002 | 8810 | 0.31 | 1.54 | 0.000317 | 206000 |

— patent publication US20240058465A1 (SUTRO BIOPHARMA, published 2024)
